According to patent US20140341881A1 (DERMADIS, published 2014):

T1: human kallikrein 14 (hK14) (human, UniProt Q9P0G3 25-251, limits assumed)
T1 construct: range counted on GenBank AAK48524 (printed), which may differ from the UniProt numbering; also called recombinant hK14
T1 sequence (looked up): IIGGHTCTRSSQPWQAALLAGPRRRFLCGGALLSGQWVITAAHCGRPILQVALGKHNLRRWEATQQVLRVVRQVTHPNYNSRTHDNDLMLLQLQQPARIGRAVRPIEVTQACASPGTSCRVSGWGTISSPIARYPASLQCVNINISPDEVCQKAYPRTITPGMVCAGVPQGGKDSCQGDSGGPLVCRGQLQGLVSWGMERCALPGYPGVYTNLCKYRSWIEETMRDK

T2: human neutrophil elastase (HNE) (human, UniProt P08246 30-247, limits assumed)
T2 sequence (looked up): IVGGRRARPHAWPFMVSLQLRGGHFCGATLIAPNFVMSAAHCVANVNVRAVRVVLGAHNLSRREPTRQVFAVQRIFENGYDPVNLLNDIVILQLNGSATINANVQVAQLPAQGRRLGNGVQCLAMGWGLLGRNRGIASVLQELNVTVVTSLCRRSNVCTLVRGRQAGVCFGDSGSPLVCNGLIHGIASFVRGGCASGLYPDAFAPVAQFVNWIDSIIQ

T3: human kallikrein 8 (hK8) (human, UniProt O60259 33-260)
T3 sequence (looked up): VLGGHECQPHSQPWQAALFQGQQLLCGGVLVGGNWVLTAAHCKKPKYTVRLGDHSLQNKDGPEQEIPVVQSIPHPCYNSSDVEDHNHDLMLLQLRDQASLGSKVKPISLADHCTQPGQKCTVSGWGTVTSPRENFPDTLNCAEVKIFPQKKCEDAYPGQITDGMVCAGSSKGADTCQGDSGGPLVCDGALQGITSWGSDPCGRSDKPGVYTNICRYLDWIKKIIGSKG

T4: human kallikrein 5 (hK5) (human, UniProt Q9Y337 67-293, limits assumed)
T4 sequence (looked up): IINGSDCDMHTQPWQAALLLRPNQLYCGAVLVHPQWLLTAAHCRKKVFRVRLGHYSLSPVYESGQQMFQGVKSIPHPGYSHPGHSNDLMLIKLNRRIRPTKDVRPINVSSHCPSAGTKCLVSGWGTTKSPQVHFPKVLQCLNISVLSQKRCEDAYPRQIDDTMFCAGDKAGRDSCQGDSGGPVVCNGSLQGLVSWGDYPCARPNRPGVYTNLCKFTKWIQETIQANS


Key:
[1] = molecular target: T1, human kallikrein 14 (hK14); assay: progress curve; * [I0]/[E0] < 5 * SI
Method: The association rate constants for interactions of hK14, with different inhibitors were determined under pseudo-first order conditions using the progress curve method (Morrison and Walsh, 1988). Under these conditions, a fixed amount of enzyme (2 nM) was mixed with different concentrations of inhibitor (0-80 nM) and an excess of substrate (20 μM). Reactions were performed in reaction buffer (50 mM Tris pH 7.5, 150 mM NaCl, 0.05% Triton X-100, 0.01% BSA) at 37° C. for 45 min and the rate of product formation was measured using a FLₓ800 fluorescence 96-well microplate reader (Biotek, USA) Inhibition is considered to be irreversible over the course of reaction and the progression of enzyme activity is expressed as product formation (P), beginning at a rate (vz) and is inhibited over time (t) at a first-order rate (kobs), where the rate constant is only dependent on the inhibitor concentration.

[2] = molecular target: human chymotrypsin (Chtr) (human, UniProt P17538 19-263); assay: cell-based or functional assay
Sequence of human chymotrypsin (Chtr) (P17538 19-263): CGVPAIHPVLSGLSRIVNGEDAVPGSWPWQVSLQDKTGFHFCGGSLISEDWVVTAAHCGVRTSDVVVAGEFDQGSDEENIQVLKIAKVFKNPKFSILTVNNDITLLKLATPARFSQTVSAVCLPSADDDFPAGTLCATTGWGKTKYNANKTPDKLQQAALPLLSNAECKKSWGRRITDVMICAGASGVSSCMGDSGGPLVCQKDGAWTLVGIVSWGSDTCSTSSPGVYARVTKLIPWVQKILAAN

thrombin = assay: cell-based or functional assay
[3] = molecular target: human plasma kallikrein (PK) (human, UniProt P03952 20-638); assay: cell-based or functional assay
Sequence of human plasma kallikrein (PK) (P03952 20-638 limits assumed): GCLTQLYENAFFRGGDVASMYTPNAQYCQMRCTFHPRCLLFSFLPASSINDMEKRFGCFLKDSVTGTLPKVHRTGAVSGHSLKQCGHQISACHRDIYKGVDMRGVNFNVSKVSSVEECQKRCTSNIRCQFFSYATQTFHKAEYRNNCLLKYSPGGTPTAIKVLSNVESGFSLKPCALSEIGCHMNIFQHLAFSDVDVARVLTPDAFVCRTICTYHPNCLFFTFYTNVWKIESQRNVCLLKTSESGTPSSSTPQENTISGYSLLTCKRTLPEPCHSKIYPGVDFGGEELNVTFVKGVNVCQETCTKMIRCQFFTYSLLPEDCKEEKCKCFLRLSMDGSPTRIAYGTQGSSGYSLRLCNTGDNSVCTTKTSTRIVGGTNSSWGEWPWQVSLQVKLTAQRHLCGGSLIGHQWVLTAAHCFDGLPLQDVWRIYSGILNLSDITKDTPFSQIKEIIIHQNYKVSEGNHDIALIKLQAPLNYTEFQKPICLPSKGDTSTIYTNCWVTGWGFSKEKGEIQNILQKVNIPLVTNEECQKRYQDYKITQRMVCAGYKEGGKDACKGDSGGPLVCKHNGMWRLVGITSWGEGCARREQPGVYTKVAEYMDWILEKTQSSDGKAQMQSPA

[4] = molecular target: T1, human kallikrein 14 (hK14); assay: cell-based or functional assay
[5] = molecular target: urokinase plasminogen activator (uPA) (UniProt P00749 21-431, limits assumed); assay: cell-based or functional assay
[6] = molecular target: T2, human neutrophil elastase (HNE); assay: cell-based or functional assay
[7] = molecular target: T1, human kallikrein 14 (hK14); assay: residual hK14 activity against [I0]/[E0]
Method: SI values of rAAT, rACT, and their variants were determined with hK14 incubating the protease with varying concentrations of inhibitor. After an incubation of 4 hours at 37° C. in reaction buffer (50 mM Tris, pH 7.5, 150 mM NaCl, 0.05% Triton X-100, 0.01% BSA), the residual activity was detected by the addition of fluorescent substrate (Boc-Val-Pro-Arg-AMC). Fluorescence was measured with excitation at 340 nm (±15) and emission at 485 nm (±10) in black 96 well plates using a microplate fluorescence reader FLₓ800 (Bio-Tek Instruments, Inc.). The SI value corresponds to the abscissa intercept of the linear regression analysis of fractional velocity (velocity of inhibited enzyme reaction (vi)/velocity of uninhibited enzyme reaction (v₀)) vs. the molar ratio of the inhibitor to enzyme ([I₀]/[E₀]).

human kallikrein 8 (hK8) = molecular target: T3, human kallikrein 8 (hK8); assay: cell-based or functional assay
human kallikrein 4 (hK4) = human kallikrein 4 (hK4) (human, UniProt Q9Y5K2 31-254, limits assumed); assay: cell-based or functional assay
Sequence of human kallikrein 4 (hK4) (Q9Y5K2 31-254 limits assumed): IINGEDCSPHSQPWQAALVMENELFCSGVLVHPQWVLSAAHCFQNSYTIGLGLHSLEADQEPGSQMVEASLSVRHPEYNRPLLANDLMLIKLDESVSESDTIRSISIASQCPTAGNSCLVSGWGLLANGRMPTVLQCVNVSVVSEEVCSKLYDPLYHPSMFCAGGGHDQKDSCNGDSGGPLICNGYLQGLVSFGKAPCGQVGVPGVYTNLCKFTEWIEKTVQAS

human kallikrein 2 (hK2) = human kallikrein 2 (hK2) (human, UniProt P20151 25-261); assay: cell-based or functional assay
human kallikrein 6 (hK6) = human kallikrein 6 (hK6) (human, UniProt Q92876 22-244); assay: cell-based or functional assay
human kallikrein 5 (hK5) = molecular target: T4, human kallikrein 5 (hK5); assay: cell-based or functional assay

Binder	kon [1]	% Inhibition [2]	% Inhibition (thrombin)	% Inhibition [3]	% Inhibition [4]	% Inhibition [5]	% Inhibition [6]	SI (stoichiometry of inhibition) [7]	% Inhibition (human kallikrein 8 (hK8))	% Inhibition (human kallikrein 4 (hK4))	% Inhibition (human kallikrein 2 (hK2))	% Inhibition (human kallikrein 6 (hK6))	% Inhibition (human kallikrein 5 (hK5))
ACTC11D (other, also called rACTC11D) MRGSHHHHHHSRHPNSPLDEENLTQENQDRGTHVDLGLASANVDFAFSLYKQLVLKAPDKNVIFSPLSISTALAFLSLGAHNTTLTEILKGLKFNLTETSEAEIHQSFQHLLRTLNQSSDELQLSMGNAMFVKEQLSLLDRFTEDAKRLYGSEAFATDFQDSAAAKKLINDYVKNGTRGKITDLIKDLDSQTMMVLVNYIFFKAKWEMPFDPQDTHQSRFYLSKKKWVMVPMMSLHHLTIPYFRDEELSCTVVELKYTGNASALFILPDQDKMEEVEAMLLPETLKRWRDSLEFREIGELYLPKFSISRDYNLNDILLQLGIEEAFTSKADLSGITGARNLAVSQVVHKAVLDVFEEGTEASAATAVKITLRQTNDETRTIVRFNRPFLMIIVPTDTQNIFFMSKVTNPKQA	74000 M⁻¹ s⁻¹	83%	0%	0%	100%	0%	0%	2.8	–	–	–	–	–
ACTE5 (other) MRGSHHHHHHSRHPNSPLDEENLTQENQDRGTHVDLGLASANVDFAFSLYKQLVLKAPDKNVIFSPLSISTALAFLSLGAHNTTLTEILKGLKFNLTETSEAEIHQSFQHLLRTLNQSSDELQLSMGNAMFVKEQLSLLDRFTEDAKRLYGSEAFATDFQDSAAAKKLINDYVKNGTRGKITDLIKDLDSQTMMVLVNYIFFKAKWEMPFDPQDTHQSRFYLSKKKWVMVPMMSLHHLTIPYFRDEELSCTVVELKYTGNASALFILPDQDKMEEVEAMLLPETLKRWRDSLEFREIGELYLPKFSISRDYNLNDILLQLGIEEAFTSKADLSGITGARNLAVSQVVHKAVLDVFEEGTEASAATAVKINQRSSLVETRTIVRFNRPFLMIIVPTDTQNIFFMSKVTNPKQA	–	–	–	–	–	–	–	–	10%	75%	0%	0%	10%
ACTG1 (other) MRGSHHHHHHSRHPNSPLDEENLTQENQDRGTHVDLGLASANVDFAFSLYKQLVLKAPDKNVIFSPLSISTALAFLSLGAHNTTLTEILKGLKFNLTETSEAEIHQSFQHLLRTLNQSSDELQLSMGNAMFVKEQLSLLDRFTEDAKRLYGSEAFATDFQDSAAAKKLINDYVKNGTRGKITDLIKDLDSQTMMVLVNYIFFKAKWEMPFDPQDTHQSRFYLSKKKWVMVPMMSLHHLTIPYFRDEELSCTVVELKYTGNASALFILPDQDKMEEVEAMLLPETLKRWRDSLEFREIGELYLPKFSISRDYNLNDILLQLGIEEAFTSKADLSGITGARNLAVSQVVHKAVLDVFEEGTEASAATAVKGSLRSALVETRTIVRFNRPFLMIIVPTDTQNIFFMSKVTNPKQA	3200 M⁻¹ s⁻¹	–	–	–	–	–	–	13.3	0%	0%	15%	20%	50%

More lines, now with the values ahead:

kon [1]	% Inhibition [2]	% Inhibition (thrombin)	% Inhibition [3]	% Inhibition [4]	% Inhibition [5]	% Inhibition [6]	SI (stoichiometry of inhibition) [7]	% Inhibition (human kallikrein 8 (hK8))	% Inhibition (human kallikrein 4 (hK4))	% Inhibition (human kallikrein 2 (hK2))	% Inhibition (human kallikrein 6 (hK6))	% Inhibition (human kallikrein 5 (hK5))	Binder
–	–	–	–	–	–	–	–	0%	0%	0%	0%	10%	ACTG1g (other) MRGSHHHHHHSRHPNSPLDEENLTQENQDRGTHVDLGLASANVDFAFSLYKQLVLKAPDKNVIFSPLSISTALAFLSLGAHNTTLTEILKGLKFNLTETSEAEIHQSFQHLLRTLNQSSDELQLSMGNAMFVKEQLSLLDRFTEDAKRLYGSEAFATDFQDSAAAKKLINDYVKNGTRGKITDLIKDLDSQTMMVLVNYIFFKAKWEMPFDPQDTHQSRFYLSKKKWVMVPMMSLHHLTIPYFRDEELSCTVVELKYTGNASALFILPDQDKMEEVEAMLLPETLKRWRDSLEFREIGELYLPKFSISRDYNLNDILLQLGIEEAFTSKADLSGITGARNLAVSQVVHKAVLDVFEEGTEASAATAVKGSLRGALVETRTIVRFNRPFLMIIVPTDTQNIFFMSKVTNPKQA
–	–	–	–	–	–	–	–	0%	45%	25%	0%	15%	ACTF11 (other) MRGSHHHHHHSRHPNSPLDEENLTQENQDRGTHVDLGLASANVDFAFSLYKQLVLKAPDKNVIFSPLSISTALAFLSLGAHNTTLTEILKGLKFNLTETSEAEIHQSFQHLLRTLNQSSDELQLSMGNAMFVKEQLSLLDRFTEDAKRLYGSEAFATDFQDSAAAKKLINDYVKNGTRGKITDLIKDLDSQTMMVLVNYIFFKAKWEMPFDPQDTHQSRFYLSKKKWVMVPMMSLHHLTIPYFRDEELSCTVVELKYTGNASALFILPDQDKMEEVEAMLLPETLKRWRDSLEFREIGELYLPKFSISRDYNLNDILLQLGIEEAFTSKADLSGITGARNLAVSQVVHKAVLDVFEEGTEASAATAVKQRLRDALVETRTIVRFNRPFLMIIVPTDTQNIFFMSKVTNPKQA
7600 M⁻¹ s⁻¹	–	–	–	–	–	–	13.8	0%	0%	25%	0%	5%	ACTC11g (other) MRGSHHHHHHSRHPNSPLDEENLTQENQDRGTHVDLGLASANVDFAFSLYKQLVLKAPDKNVIFSPLSISTALAFLSLGAHNTTLTEILKGLKFNLTETSEAEIHQSFQHLLRTLNQSSDELQLSMGNAMFVKEQLSLLDRFTEDAKRLYGSEAFATDFQDSAAAKKLINDYVKNGTRGKITDLIKDLDSQTMMVLVNYIFFKAKWEMPFDPQDTHQSRFYLSKKKWVMVPMMSLHHLTIPYFRDEELSCTVVELKYTGNASALFILPDQDKMEEVEAMLLPETLKRWRDSLEFREIGELYLPKFSISRDYNLNDILLQLGIEEAFTSKADLSGITGARNLAVSQVVHKAVLDVFEEGTEASAATAVKITGRQTNVETRTIVRFNRPFLMIIVPTDTQNIFFMSKVTNPKQA
